Values belong to the molecule of their own block, whether it stands above or below them.
Assays:
[1] = tested on: MCF-7 cells; test: MCF-7 cell proliferation assay, IGF-1R agonist format; format: cell-based, human; conditions: MCF-7 and MiaPaCa cells (Tables 27-28)
Source text: ; FIGS. 65A-65F), and were used for subsequent experiments.

[2] = biological target: recombinant human insulin receptor (Homo sapiens, UniProt P06213); test: Substrate phosphorylation assay (HIR kinase); format: biochemical; conditions: Table 8, HIR kinase assay
Description: Subsequently, a 2000-fold dilution of horseradish peroxidase (HRPO) conjugated phosphotyrosine antibody (Transduction Laboratories, Cat. No. E120H) in TBS was added. The plates were incubated for 30 min and washed 3 times with TBS. TMB (3,3′,5,5′-tetramethylbenzidine; Kem-En-Tec, Copenhagen, Denmark) was added. One substrate from Kem-En-Tec was added. After 10-15 min, the reaction was stopped by the addition of 1% acetic acid. The absorbance, representing the extent of substrate phosphorylation, was measured in a spectrophotometer at a wavelength of 450 nm.

[3] = tested on: free fat cells (adipocytes); test: Adipocyte / free fat cell (FFC) assay, 3H glucose incorporation into lipid; conditions: for FFC Pot., agonist or antagonist: Table 8, letter before the potency
Description: Incorporation of ^3H into the lipid phase was determined by partitioning of lipid phase into a scintillant mixture, which excludes water-soluble ^3H products.

[4] = biological target: T1, human insulin receptor (HIR) (Homo sapiens, UniProt P06213); test: Insulin receptor binding, competition with 125I-labeled insulin (HIR Kd); conditions: insulin competition
T1 construct: made in house

[5] = biological target: T2, insulin receptor construct transfected into 32D cells (Homo sapiens, UniProt P06213); test: IR autophosphorylation assay in IR transfected 32D cells (ELISA); format: cell-based; conditions: tested as MBP fusion peptides
T2 construct: expressed in transfected cells; host or cells: 32D cells (clone 969)
Description: The IR transfected 32D cells were seeded at […] in 96-well tissue culture plates and incubated overnight at 37° C. […] The culture media was decanted from the cell culture plates, and the diluted samples were added to the cells. The plates were incubated at 37° C. for 30 min. The stimulation medium was decanted from the plates, and cell lysis buffer (50 mM HEPES pH 7.2, 150 mM NaCl, 0.5% Triton X-100, 1 mM AEBSF, 10 KIU/ml aprotinin, 50 μM leupeptin, and 2 mM sodium orthovanadate) was added. The cells were lysed for 30 min.
In the ELISA portion of the assay, the cell lysates were added to the BSA-blocked anti-IR unit mAb (Upstate Biotechnology, Lake Placid, N.Y.) coated ELISA plates. After a 2 h incubation, the plates were washed 6 times with PBST and biotinylated anti-phosphotyrosine antibody (Upstate Biotechnology) is added. After another 2 h incubation, the plates were again washed 6 times. Streptavidin-Eu was then added, and the plates were incubated for 1 h. After washing the plates again, EG&G Wallac enhancement solution (100 mM acetone-potassium hydrogen pthalate, pH 3.2; 15 mM 2-naphtyltrifluoroacetate; 50 mM tri(n-octyl)-phosphine oxide; 0.1% Triton X-100) was added into each well, and the plates were placed onto a shaker for 20 min at RT.

[6] = tested on: IR; test: IR activity (agonist/antagonist) of MBP-peptide fusions, Table 10; test not named; conditions: MBP-peptide fusion proteins; one symbol per monomer unit

B1: D112-12-RP30-IGF: dimer peptide (Site 1-Site 1) (protein)
chain: ADYKDCWARPCGDAANFYDWFVQQASKKGGSGGSGGSGGSSFYSCLESLVNGGAERSDGQWEGCRAAAGAPVPYPDPLEPRPG
IGF-1R agonist activity, proliferation of MCF-7 and MiaPaCa cells, in words [1]: IGF-1R agonist activity

B4: RP30-IGF-12-D112: dimer peptide (Site 1-Site 1) (protein)
chain: ADYKDSFYSCLESLVNGGAERSDGQWEGCRGGSGGSGGSGGSCWARPCGDAANFYDWFVQQASKKAAAGAPVPYPDPLEPRPG
IGF-1R agonist activity, proliferation of MCF-7 and MiaPaCa cells, in words [1]: IGF-1R agonist activity

B6: 463 (protein)
chain: NNNNLGIEGRISEFIEGRAQPAMAFHENFYDWFVRQVSGGSFHENFYDWFVRQVSAAAGAPVPYPDPLEPRAA
modifications: MBP fusion
Act. (activity) [6]: A—A

B7: H2C-9aa-H2C: MBP fusion, H2C dimer (Site 1-Site 1) with 9 amino acid linker (protein)
chain: NNNNLGIEGRISEFIEGRAQPAMAFHENFYDWFVRQVSGGSGGSGGSFHENFYDWFVRQVSAAAGAPVPYPDPLEPRAA
modifications: left off: large carriers; small tags and cut ends
stimulation of autophosphorylation of IR [5]: active

Further lines, with some results ahead:

Kinase Pot. (nM) [2]: Inactive
B2: MADYKDDDDKGSLDESFYDWFERQLGKKGGSGGSGGSGGSWLDQEWAWVQCEVYGRGCPSAAA(ETAG)PG (protein)
chain: MADYKDDDDKGSLDESFYDWFERQLGKKGGSGGSGGSGGSWLDQEWAWVQCEVYGRGCPSAAAGAPVPYPDPLEPRPG
modifications: E-tag
activity in the free fat cell (FFC) assay / at IR, in words [3]: active as specific insulin receptor antagonists
FFC Pot., agonist or antagonist [3]: N
activity in the FFC assay using the standard concentration of insulin [3]: inactive
activity in the FFC assay in the presence of a stimulating concentration of insulin [3]: antagonists
IR / HIR binding affinity compared with monomer or homodimer peptides, in words [4]: substantially higher (several orders of magnitude) affinity

Kinase Pot. (nM) [2]: Inactive
B3: MADYKDDDDKGSLDESFYDWFERQLGKKGGSGGSWLDQEWAWVQCEVYGRGCPSAAA(ETAG)PG (protein)
chain: MADYKDDDDKGSLDESFYDWFERQLGKKGGSGGSWLDQEWAWVQCEVYGRGCPSAAAGAPVPYPDPLEPRPG
modifications: E-tag
activity in the free fat cell (FFC) assay / at IR, in words [3]: active as specific insulin receptor antagonists
FFC Pot., agonist or antagonist [3]: N
activity in the FFC assay using the standard concentration of insulin [3]: inactive
activity in the FFC assay in the presence of a stimulating concentration of insulin [3]: antagonists
IR / HIR binding affinity compared with monomer or homodimer peptides, in words [4]: substantially higher (several orders of magnitude) affinity

stimulation of autophosphorylation of IR [5]: active
B5: H2C-3aa-H2C: MBP fusion, H2C dimer (Site 1-Site 1) with 3 amino acid linker (protein)
chain: B6 chain
modifications: left off: large carriers; small tags and cut ends
